Source: the RNAGym collection of RNA variant scans (doi:10.1093/nar/gkz1192)

B1: CPEB3 Ribozyme (parent)
chain: UAACAGGGGGCCACAGCAGAAGCGUUCACGUCGCAGCCCCUGUCAGAUUCUGGUGAAUCUGCGAAUUCUGCUGUAUAUCUC

Variants of: B1
Assay: self-cleavage, relative activity (ratio to wild type); higher = more cleavage; in vitro, sequencing
Outline: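 Libraries of CPEB3 self-cleaving ribozyme mutants came from rounds of error-prone PCR and carried barcodes, which DNA sequencing matched to variants. In vitro transcription used T7 RNA polymerase at 37°C for 5 hours, with a further 15 min in DNase I before EDTA stopped the reaction; the ribozymes cleaved during both steps. The RNA was reverse transcribed with template switching and sequenced on Illumina. Relative activity is the cleaved/total read fraction of a variant divided by that of the unmutated ribozyme, averaged over three batches with at least 5 reads.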

Variant | self-cleavage
UAACAGGGGGCCACUGCAGACGCGUUCACGUCGCAGCCCCUGUCAGAUUCUGGUGAAUCUGCGAAUUCUGCUGUAUAUCUC [A15U A21C] | 0.36
UAACAGGGGGCCACUGCAGAGGCGUUCACGUCGCAGCCCCUGUCAGAUUCUGGUGAAUCUGCGAAUUCUGCUGUAUAUCUC [A15U A21G] | 0.35
UAACAGGGGGCCACUGCAGAUGCGUUCACGUCGCAGCCCCUGUCAGAUUCUGGUGAAUCUGCGAAUUCUGCUGUAUAUCUC [A15U A21U] | 0.19
UAACAGGGGGCCACUGCCGAAGCGUUCACGUCGCAGCCCCUGUCAGAUUCUGGUGAAUCUGCGAAUUCUGCUGUAUAUCUC [A15U A18C] | 0.35
UAACAGGGGGCCACUGCGGAAGCGUUCACGUCGCAGCCCCUGUCAGAUUCUGGUGAAUCUGCGAAUUCUGCUGUAUAUCUC [A15U A18G] | 0.29
UAACAGGGGGCCACUGCUGAAGCGUUCACGUCGCAGCCCCUGUCAGAUUCUGGUGAAUCUGCGAAUUCUGCUGUAUAUCUC [A15U A18U] | 0.25
UAACAGGGGGCCACUGCAGAAGCGUUCACGUCGCAGCACCUGUCAGAUUCUGGUGAAUCUGCGAAUUCUGCUGUAUAUCUC [A15U C38A] | 0.2
UAACAGGGGGCCACUGCAGAAGCGUUCACGUCGCAGCGCCUGUCAGAUUCUGGUGAAUCUGCGAAUUCUGCUGUAUAUCUC [A15U C38G] | 0.25
UAACAGGGGGCCACUGCAGAAGCGUUCACGUCGCAGCUCCUGUCAGAUUCUGGUGAAUCUGCGAAUUCUGCUGUAUAUCUC [A15U C38U] | 0.67
UAACAGGGGGCCACUGCAGAAGCGUUCACGUCGCAGCCCCUGUCAGAUUCUGGUGAAUCUGCGUAUUCUGCUGUAUAUCUC [A15U A64U] | 0.37
UAACAGGGGGCCACUGCAGAAGCGUUCACGUCGCAGCCCCUGUCAGAUUCUGGUGAAUCUGCGGAUUCUGCUGUAUAUCUC [A15U A64G] | 0.54
UAACAGGGGGCCACUGCAGAAGCGUUCACGUCGCAGCCCCUGUCAGAUUCUGGUGAAUCUGUGAAUUCUGCUGUAUAUCUC [A15U C62U] | 0.18
UAACAGGGGGCCACUGCAGAAGCGUUCACGUCGCAGCCCCUGUCAGAUUCUGGUGAAUCUGAGAAUUCUGCUGUAUAUCUC [A15U C62A] | 0.14
UAACAGGGGGCCACUGCAGAAGCGUUCACGUCGCAGCCCCUGUCAGAUUCUGGUGGAUCUGCGAAUUCUGCUGUAUAUCUC [A15U A56G] | 0.46
UAACAGGGGGCCACUGCAGAAGCGUUCACGUCGCAGCCCCUGUCAGAUUCUGGUGUAUCUGCGAAUUCUGCUGUAUAUCUC [A15U A56U] | 0.47
UAACAGGGGGCCACUGCAGAAGCGUUCACGUCGCAGUCCCUGUCAGAUUCUGGUGAAUCUGCGAAUUCUGCUGUAUAUCUC [A15U C37U] | 0.29
UAACAGGGGGCCACUGCAGAAGCGUUCGCGUCGCAGCCCCUGUCAGAUUCUGGUGAAUCUGCGAAUUCUGCUGUAUAUCUC [A15U A28G] | 0.22
UAACAGGGGGCCACUGCAGAAGCGUUCUCGUCGCAGCCCCUGUCAGAUUCUGGUGAAUCUGCGAAUUCUGCUGUAUAUCUC [A15U A28U] | 0.38
UAACAGGGGGCCACUGCAGAAGCGUUCCCGUCGCAGCCCCUGUCAGAUUCUGGUGAAUCUGCGAAUUCUGCUGUAUAUCUC [A15U A28C] | 0.33
UAACAGGGGGCCACUGCAGAAGCGUUCACGUCGCAGCCCCUGUCAGAUUCUGGUGAAUCUGCGAAUUCUGCUGUAUAUCUC [A15U] | 0.76
UAACAGGGGGCCACUGCAGAAGCGUUCAUGUCGCAGCCCCUGUCAGAUUCUGGUGAAUCUGCGAAUUCUGCUGUAUAUCUC [A15U C29U] | 0.5
UAACAGGGGGCCACUGCAGAAGCGUUCACGUCGCAGCCCCUGUCCGAUUCUGGUGAAUCUGCGAAUUCUGCUGUAUAUCUC [A15U A45C] | 0.18
UAACAGGGGGCCACUGCAGAAGCGUUCACGUCGCAGCCCCUGUCGGAUUCUGGUGAAUCUGCGAAUUCUGCUGUAUAUCUC [A15U A45G] | 0.49

Variant | self-cleavage
UAACAGGGGGCCACUGCAGAAGCGUUCACGUCGCAGCCCCUGUCUGAUUCUGGUGAAUCUGCGAAUUCUGCUGUAUAUCUC [A15U A45U] | 0.33
UAACAGGGGGCCACUGCAGAAGCGUUCACGUCGCAGCCUCUGUCAGAUUCUGGUGAAUCUGCGAAUUCUGCUGUAUAUCUC [A15U C39U] | 0.65
UAACAGGGGGCCACUGCAGAAGCGUUCACGUCGCAGCCACUGUCAGAUUCUGGUGAAUCUGCGAAUUCUGCUGUAUAUCUC [A15U C39A] | 0.24
UAACAGGGGGCCACUGCAGAAGCGUUCACGUCGCAGCCCCUGUCAGUUUCUGGUGAAUCUGCGAAUUCUGCUGUAUAUCUC [A15U A47U] | 0.34
UAACAGGGGGCCACUGCAGAAGCGUUCACGUCGCAGCCCCUGUCAGCUUCUGGUGAAUCUGCGAAUUCUGCUGUAUAUCUC [A15U A47C] | 0.29
UAACAGGGGGCCACUGCAGAAGCGUUCACGUCGCAGCCCCUGUCAGGUUCUGGUGAAUCUGCGAAUUCUGCUGUAUAUCUC [A15U A47G] | 0.51
UAACAGGGGGCCACUGCAGAAGCGUUCACGUCGCAGCCCCUGUCAGAUUCUGGUGAAUCUGCGAAUUCUGCUGUAUCUCUC [A15U A77C] | 0.41
UAACAGGGGGCCACUGCAGAAGCGUUCACGUCGCAGCCCCUGUCAGAUUCUGGUGAAUCUGCGAAUUCUGCUGUAUGUCUC [A15U A77G] | 0.87
UAACAGGGGGCCACUGCAGAAGCGUUCACGUCGCAGCCCCUGUCAGAUUCUGGUGAAUCUGCGAAUUCUGCUGUAUUUCUC [A15U A77U] | 0.71
UAACAGGGGGCCACUGCAGUAGCGUUCACGUCGCAGCCCCUGUCAGAUUCUGGUGAAUCUGCGAAUUCUGCUGUAUAUCUC [A15U A20U] | 0.27
UAACAGGGGGCCACUGCAGGAGCGUUCACGUCGCAGCCCCUGUCAGAUUCUGGUGAAUCUGCGAAUUCUGCUGUAUAUCUC [A15U A20G] | 0.41
UAACAGGGGGCCACUGCAGAAGCGUUCACGUCGCAGCCCCUGUUAGAUUCUGGUGAAUCUGCGAAUUCUGCUGUAUAUCUC [A15U C44U] | 0.22
UAACAGGGGGCCACUGCAGAAGCGUUCACGUCGCAGCCCCUGUAAGAUUCUGGUGAAUCUGCGAAUUCUGCUGUAUAUCUC [A15U C44A] | 0.32
UAACAGGGGGCCACUGCAGAAGCGUUCACGUCGCAGCCCCUGUGAGAUUCUGGUGAAUCUGCGAAUUCUGCUGUAUAUCUC [A15U C44G] | 0.31
UAACAGGGGGCCACUGCAGAAGCGUUCACGUCGGAGCCCCUGUCAGAUUCUGGUGAAUCUGCGAAUUCUGCUGUAUAUCUC [A15U C34G] | 0.27
UAACAGGGGGCCACUGCAGAAGCGUUCACGUCGUAGCCCCUGUCAGAUUCUGGUGAAUCUGCGAAUUCUGCUGUAUAUCUC [A15U C34U] | 0.29
UAACAGGGGGCCACUGCAGAAGCGUUCACGUCGAAGCCCCUGUCAGAUUCUGGUGAAUCUGCGAAUUCUGCUGUAUAUCUC [A15U C34A] | 0.37
UAACAGGGGGCCACUGCAGAAGCGUUCACGUCGCGGCCCCUGUCAGAUUCUGGUGAAUCUGCGAAUUCUGCUGUAUAUCUC [A15U A35G] | 1.24
UAACAGGGGGCCACUGCAGAAGCGUUCACGUCGCUGCCCCUGUCAGAUUCUGGUGAAUCUGCGAAUUCUGCUGUAUAUCUC [A15U A35U] | 0.51
UAACAGGGGGCCACGGCAGAAGCGUUCACGUCGCAGCCCCUGUCAGAUUCUGGUGAAUCUGCGAAUUCUGCUGUAUACCUC [A15G U78C] | 0.78
UAACAGGGGGCCACGGCAGAAGCGUUCACGUCGCAGCCCCUGUCAGAUUCUGGUGAAUCUGCGAAUUCUGCUGUAUAGCUC [A15G U78G] | 1.06
UAACAGGGGGCCACUGCAGAAGCGUUCACGUCGCAGCCCCUGUCAGAUUCUGGUGAUUCUGCGAAUUCUGCUGUAUAUCUC [A15U A57U] | 0.15
UAACAGGGGGCCACUGCAGAAGCGUUCACGUCGCAGCCCCUGUCAGAUUCUGGUGAGUCUGCGAAUUCUGCUGUAUAUCUC [A15U A57G] | 0.66

Variant | self-cleavage
UAACAGGGGGCCACUGCAGAAGCGUUCACGUCGCAGCCCCUGUCAGAUUCUGGUGAAUCUGCGAAUUCUGCUGUGUAUCUC [A15U A75G] | 0.67
UAACAGGGGGCCACUGCAGAAGCGUUCACGUCGCAGCCCCUGUCAGAUUCUGGUGAAUCUGCGAAUUCUGCUGUUUAUCUC [A15U A75U] | 0.87
UAACAGGGGGCCACUGCAGAAGCGUUCACGUCGCAGCCCCUGUCAGAUUCUGGUGAAUCUGCGAAUUUUGCUGUAUAUCUC [A15U C68U] | 0.26
UAACAGGGGGCCACUGCAGAAGCGUUCACGUAGCAGCCCCUGUCAGAUUCUGGUGAAUCUGCGAAUUCUGCUGUAUAUCUC [A15U C32A] | 0.24
UAACAGGGGGCCACUGCAGAAGCGUUCACGUGGCAGCCCCUGUCAGAUUCUGGUGAAUCUGCGAAUUCUGCUGUAUAUCUC [A15U C32G] | 0.06
UAACAGGGGGCCACUGCAGAAGCGUUCACGUUGCAGCCCCUGUCAGAUUCUGGUGAAUCUGCGAAUUCUGCUGUAUAUCUC [A15U C32U] | 0.4
UAACAGGGGGCCACUGCAGAAGCGUUCACGUCGCAGCCCGUGUCAGAUUCUGGUGAAUCUGCGAAUUCUGCUGUAUAUCUC [A15U C40G] | 0.18
UAACAGGGGGCCACUGCAGAAGCGUUCACGUCGCAGCCCAUGUCAGAUUCUGGUGAAUCUGCGAAUUCUGCUGUAUAUCUC [A15U C40A] | 0.31
UAACAGGGGGCCACUGCAGAAGCGUUCACGUCGCAGCCCUUGUCAGAUUCUGGUGAAUCUGCGAAUUCUGCUGUAUAUCUC [A15U C40U] | 0.55
UAACAGGGGGCCACGGCAGAAGCGUUCACGUCGCAGCCCCUGUCAGAUUCUGGUGAAUCUGCGAAUUCUGCUGUAUAUCAC [A15G U80A] | 1.07
UAACAGGGGGCCACGGCAGAAGCGUUCACGUCGCAGCCCCUGUCAGAUUCUGGUGAAUCUGCGAAUUCUGCUGUAUAUCCC [A15G U80C] | 1.06
UAACAGGGGGCCACGGCAGAAGCGUUCACGUCGCAGCCCCUGUCAGAUUCUGGUGAAUCUGCGAAUUCUGCUGUAUAUCGC [A15G U80G] | 0.86
UAACAGGGGGCCACUGCAGAAGCGUUCACGUCGCAGCCCCUGUCAGAUUCUGGUGAAUGUGCGAAUUCUGCUGUAUAUCUC [A15U C59G] | 0.1
UAACAGGGGGCCACUGCAGAAGCGUUUACGUCGCAGCCCCUGUCAGAUUCUGGUGAAUCUGCGAAUUCUGCUGUAUAUCUC [A15U C27U] | 0.19
UAACAGGGGGCCACUGCAGAAGCGUUCACGUCGCAGCCCCUGUCAGAUUCUGGUGAAUCUGCGAGUUCUGCUGUAUAUCUC [A15U A65G] | 0.29
UAACAGGGGGCCACUGCAGAAGCGUUCACGUCGCAGCCCCUGUCAGAUUCUGGUGAAUCUGCGAUUUCUGCUGUAUAUCUC [A15U A65U] | 0.37
UAACAGGGGGCCACUGCAGAAGAGUUCACGUCGCAGCCCCUGUCAGAUUCUGGUGAAUCUGCGAAUUCUGCUGUAUAUCUC [A15U C23A] | 0.18
UAACAGGGGGCCACUGCAGAAGUGUUCACGUCGCAGCCCCUGUCAGAUUCUGGUGAAUCUGCGAAUUCUGCUGUAUAUCUC [A15U C23U] | 0.23
UAACAGGGGGCCACUGUAGAAGCGUUCACGUCGCAGCCCCUGUCAGAUUCUGGUGAAUCUGCGAAUUCUGCUGUAUAUCUC [A15U C17U] | 0.21
UAACAGGGGGCCACUGGAGAAGCGUUCACGUCGCAGCCCCUGUCAGAUUCUGGUGAAUCUGCGAAUUCUGCUGUAUAUCUC [A15U C17G] | 0.36
UAACAGGGGGCCACUGAAGAAGCGUUCACGUCGCAGCCCCUGUCAGAUUCUGGUGAAUCUGCGAAUUCUGCUGUAUAUCUC [A15U C17A] | 0.6
UAACAGGGGGCCACUGCAGAAGCGUUCACGUCGCAGCCCCUGUCAGAUUGUGGUGAAUCUGCGAAUUCUGCUGUAUAUCUC [A15U C50G] | 0.26
